Consider 19 sequences from the DeepSol protein solubility set.

A short description of the data set: soluble on expression in E. coli; label from the status in PepcDB or PDB records.
For the sequence “MSINKIEEDRDISSDLEMKAKMYLVHRMDKAGPLTVKDVRILINKLSKDLQKNQLTLIDCQLIINLVESRFTLVKQATRYLQFFLNKLDGKSINPILIPLSNKPFWQNEPHPFDHYRSTDQLPEKVDIVIIGAGLTGASTAYHLIDAVKKRHLTVVLLDKGNPATEASGRNGGNFELLPENSVGIYSGLVSERFRFLKRCYPHVHPSILQIESEYHASLVFQFALKNRNRFKEIARKERIYCDLAAKGWLYIAHTEEEEQAICDEVTLAAQHGERIYIWSRKKIREQFGINSKFIGRFIPDDGTYNPFKYTCCLIKAAIKSGIKLYTFVKVQQIKSIDTEYHQLKTNMGLLKARQVIVATNAFTSELLPELRAIKPHQSQIAITDSTPDYCKGRLITSEDGPLYLNQPRVRSKNGLVPLLIGAGDDRPMKNPYYRKRSKKVHDLIVQQRDKYFPNLKGRPFSTEWVGALAFTPDQLPAIGYLSPGIIIVMCCNGYGGSYTTAAGLAAAEIALTGKNPPWLPADVFSPKRLLSDKPLFWEDSDSLWRIGKTLCTTLNNLNQLLAESLSYQSMYQPYSTISLLPHGHQEKNCNLDPLRVMHQLAIFRTFAYQELEMLIRYTSPVCLSKGEILFKQGDAGHSCFILIQGKINLYYEHAEGFTSMVAELEAGSVFGQMALFLENKRMATCQATENCSMLEIMVEPCKSLFIQQQALGIKLLRLLNQGVIDALHKLNKRLKYT”, the “soluble on expression in E. coli” value is on record as “not soluble”. Turning to “MSIRSLGYLRIEATDMAAWREYGLKVLGMVEGKGAPEGALYLRMDDFPARLVVVPGEHDRLLEAGWECANAEGLQEIRNRLDLEGTPYKEATAAELADRRVDEMIRFADPSGNCLEVFHGTALEHRRVVSPYGHRFVTGEQGMGHVVLSTRDDAEALHFYRDVLGFRLRDSMRLPPQMVGRPADGPPAWLRFFGCNPRHHSLAFLPMPTSSGIVHLMVEVEQADDVGLCLDRALRRKVPMSATLGRHVNDLMLSFYMKTPGGFDIEFGCEGRQVDDRDWIARESTAVSLWGHDFTVGARG”, the “soluble on expression in E. coli” value is reported as “soluble”. Take “MSISSIPSSPSISGSSTSSTAPNISFCYTWTTKLKTRKTADGEATILSISPKFATVHQLISFQWNIRIHATSEMNEEDEEVDYVAVDLYLVDGPVNEVNVMAEVGALEKTSTATLGSLPAGQKEAKTIKMQKGSGCEITDADRECVSKYLKENTRLFEPSTYLDAISPTPRASFLTANYNARVNSKVWKRRSRKRNGRIERRVLSDKEKTKYESKVQMILDEEREKLCDKREMLKEDDGGSRRASLISQFRENQHESVLDDHMFKRILVSCCESCEQRRLSFMCDSRTEDDSEGEDCEDNEEDDGEGGSDDEEDDGEEPHFECDKSDKEHVHDMLANLYFNKVVLPEMEYVEDFVDFLIDAELNDLPVLKRACERYLCSELNSKKDIGTCLLLDLLFNSIVFNLPVMKSMTLTELANRTHEFVDADTLLDQEEFKNLDKRMRTLADRNLVELIEQCVTFRDQKARVRVLPTAESFDISFDLTNQ”: the “soluble on expression in E. coli” value is recorded as “not soluble”. Take “MSIVLSADHKDALQEFMNISMGRAASKLATLLNLHVTISVPNIRVATEEDMRALQSYAADYYYTRQSFYGGMDGELITLMSRCGCEQVVNDLNHSKGMADGLVSIEESILDISNILSGASLKGLCQQIELKTKIQPPVIFDPTHQPLPILQWRLSLIMEINFLVEKASFSAKTIICFADKELDKVFAHLDELLM”: the “soluble on expression in E. coli” value is given as “not soluble”. For “MSKCPTVRARAIDCKQGAVRAVRYNVDGNYCVTCGSDKTVKLWNPLKSSLLKTYSGTGNEVLDAASSSDNSQIAAGGADRACTVFDVETGKQLRRWRTHGAQVNAVAFNEESSVVFSGSMDCTMQAFDCRSRSEKPIQIFNESTDGILSIDVNGHEIVAGSADGNYRVYSIRDGNMTVDYMGDSVNSVSFTPDSNCLLAGVMGGIVRLIDKSSGKLLASYKGHQNTEYKLDCRVLQSIEHVASGSEDGFVYVYSLLDSHIVSKLEHPSKVIHSLTAHPKKERLMTAAGQMIYLWVAEDDAEVLGE” the value was “not soluble”.

Turning to “MSKFFINPEVLEKYSQKLAEHKSSVNHVRDLVAQADVSDESWGIVGLFVKQSYTEMLGDFKDLLKDMSDGLDSASDKMMSATRAYREIEEENRRILVEITRRINAAKIKNITS”, the “soluble on expression in E. coli” value is recorded as “not soluble”. With “MSKHTLIRRAVLEKLESVTGAPVTLFDGLPAFVEQEDLPAIAVWLTDAQYTGLMTDEDDWQATLHTAVFLRAQAPDTELDIWMEEKIFPALEEVSGLERLIDTMTPLGYDYQRDSEMATWGMAEITYRITYTN”, the “soluble on expression in E. coli” value is reported as “soluble”. With “MSKLCKEFSLSATVKNISRFVDEEIYYTDTEERFNIPWRMCIAKCDDEFSLGLKCEKNNWDNREWSIETDWTMKLVSHNGKSLMESKKFTFNNSNIFDGGLNTSWDLLESDYVVDDSVVVEAHVKIIKITDLPCDEDEDSKTFLLSSTVRNISSIEEGDDYYTETTIRHNIPWRMQIKRDDGFFGLFLRCEKEDCEDPGKSWSIELDYELRLVSLNGQSLTFSDSDLFIYPSGEGFQKFMRWDDMEEKYMVNGSIIIEARGKITSLEESDDESSSENEEDDSSESHSENDSSSDNLEDEFSECVINVGGQNYTVKKQ”, the “soluble on expression in E. coli” value is recorded as “not soluble”.

Regarding “MSKLIKGIAASDGVAIAKAYLLVEPDLTFDKNEKVTDVEGEVAKFNSAIEASKVELTKIRNNAEVQLGADKAAIFDAHLLVLDDPELIQPIQDKIKNENANAATALTDVTTQFVTIFESMDNEYMKERAADIRDVSKRVLSHILGVELPNPSMIDESVVIVGNDLTPSDTAQLNKEFVQGFATNIGGRTSASAIMSRSLEIPAIVGTKSITQEVKQGDMIIVDGLNGDVIVNPTEDELIAYQDKRERYFADKKELQKLRDADTVTVDGVHAELAANIGTPNDLPGVIENGAQGIGLYRTEFLYMGRDQMPTEEEQFEAYKEVLEAMGGKRVVVRTLDIGGDKELSYLNLPEEMNPFLGYRAIRLSLAQQDIFRPQLRALLRASVYGKLNIMFPMVATINEFREAKAILLEEKENLKNEGHDISDDIELGIMVEIPATAALADVFAKEVDFFSIGTNDLIQYTLAADRMSERVSYLYQPYNPSILRLVKQVIEASHKEGKWTGMCGEMAGDETAIPLLLGLGLDEFSMSATSILKARRQINGLSKNEMTELANRAVDCATQEEVIELVNNYVK”, the “soluble on expression in E. coli” value was “soluble”. As for “MSKLLLVGEPLIRVSPNQFQPLTNACEAQLFFGGSEVNIARTLGGFGLEARLFTALPDNPVGHAFHQFLKQSGVDMSLTAWQGHRVGLYYLENGFGCRASQVYYDRCGSSFSALDKDSLDLAAIFEGISHFHFSGISLALGKKTQDLIEVLVREAKKRDICISFDLNFRSSMIAVADAKRLFSHFAQYADIIFGMEPLLLDSDDFDMFDRKKADTTTIRERLAGLYQRYQLQAIYHTERSNDAQGSNHFKAYAYDRQFYESCEVTTPVLQRVGSGDAFVAGLLYQLLEGNEKQRNLDFAVATASLKCTVAEDQLYHSVQQVEAVLANQRDIQR”, the “soluble on expression in E. coli” value was “not soluble”. For the sequence “MSKLQGKKITPMPISAGITVVDLINEYFTAYNSARLREACKLLSQDIFQAGVTVGVSLSGAMTPAGFGVSALAPLIRHGFIDWMISTGANLYHDVHYALGFELFAGSPFLDDVKLREEGTIRIYDIIFGYDVLLETDAFIRKVLQAEPFQKRMGTAEFHYLLGKYVREVEKQLGVQHSCLLATAYEYGVPIYTSSPGDSSIGMNVAALALEGSRLVLDPAIDVNETSAIAYGARETDGKSAAVILGGGSPKNFLLQTQPQIHEVLGLEERGHNFFVQFTDARPDTGGLSGATPAEAVSWGKIDPDELPSTIVCYTDSTIAIPLVTAYVLNQCQARPVKRLYDRREALLETLQKDYLAAKDKPVVKEEGTEEVPSYRCGTPIKR”, the “soluble on expression in E. coli” value is given as “not soluble”.

For “MSKLYFRYGAMNSGKSTHLMQVAHNYEERGMEVIIIKPSTDKKGGDKVVSRLGVERVVDILIDNDENIIETIEDRLEKGRKIDCIIVDEVQFLKAHHIDELFEIAVGKGIPVICYGLRTDFQMNGFEGSERLLLLAHSIEEMKTICRCGRKAILNGRMINGKFTFEGEQVAIDLVDNVEYQSLCGQCYFKYKYGKDSDNLEHHHHHH”, the “soluble on expression in E. coli” value is “soluble”. As to “MSKNRQIQGCEVNECLHLDSTKPKSMLNKVKSVHSGFLGEPCVSVCCVCASSPVFLRRYFEWQPFSPREPHVWSTDRPLKVIDLTHLLFTEQMSDCVLGCTPQHCRLQSPVFARDTVLEVEVLLYSSLRFAHCSVDTRRPAFCSL”, the “soluble on expression in E. coli” value is “not soluble”.

Regarding “MSKPGQTILVALRKMIASGELAAGERLMEVPTAELFGVSRMPVRMAFRTLEQEGLLVPFGGRGFQVRSISPQEIAGAVDVRGVLEGLAARQMAERGLTQDARDALEACLVQGDALFDKGYVTEDDLEVYHDMNMRLHQVIVAGSGNRAIADALARNDHLPFASVTALAVDRHNLIREYRRFNFAHMQHHAVVDALINGQGARAEALMREHANATLRYADIFGAGVHERMKVIQRPD”, the “soluble on expression in E. coli” value is “not soluble”.

As to “MSKPLIFAHRGVKGTHPENTMIAFQEAERIGAHGIELDVHLSKDGELVVIHDETVDRTTNGVGLVSEKTVEELQLLDAGSYKDPSFHEAKIPTLREVFIWLSTTNLQLNIELKTDVIHYPNIEEKAVALVREYHLSNQIVFSSFNHDSVSLLAEIAPEIPRAILYDTPLTDPISEAKHREASGLHPNFQLLTKEFVQLAQEQGYVFRPYTINEYKDLQTMIDYGVDVIITDWPARAFELLS”, the “soluble on expression in E. coli” value is given as “not soluble”. In the case of “MSKQQIGVVGMAVMGRNLALNIESRGYTVSIFNRSREKTEEVIAENPGKKLVPYYTVKEFVESLETPRRILLMVKAGAGTDAAIDSLKPYLDKGDIIIDGGNTFFQDTIRRNRELSAEGFNFIGTGVSGGEEGALKGPSIMPGGQKEAYELVAPILTKIAAVAEDGEPCVTYIGADGAGHYVKMVHNGIEYGDMQLIAEAYSLLKGGLNLTNEELAQTFTEWNNGELSSYLIDITKDIFTKKDEDGNYLVDVILDEAANKGTGKWTSQSALDLGEPLSLITESVFARYISSLKDQRVAASKVLSGPQAQPAGDKAEFIEKVRRALYLGKIVSYAQGFSQLRAASEEYNWDLNYGEIAKIFRAGCIIRAQFLQKITDAYAENPQIANLLLAPYFKQIADDYQQALRDVVAYAVQNGIPVPTFSAAVAYYDSYRAAVLPANLIQAQRDYFGAHTYKRIDKEGVFHTEWLD” it was “soluble”; in that of “MSKRLPPLNALRVFDAAARHLSFTRAAEELFVTQAAVSHQIKSLEDFLGLKLFRRRNRSLLLTEEGQSYFLDIKEIFSQLTEATRKLQARSAKGALTVSLPPSFAIQWLVPRLSSFNSAYPGIDVRIQAVDRQEDKLADDVDVAIFYGRGNWPGLRVEKLYAEYLLPVCSPLLLTGEKPLKTPEDLAKHTLLHDASRRDWQAYTRQLGLNHINVQQGPIFSHSAMVLQAAIHGQGIALANNVMAQSEIEAGRLVCPFNDVLVSKNAFYLVCHDSQAELGKIAAFRQWILAKAATEQEKFRFRYEQ”, “not soluble”; in that of “MSKRLYQQIETLWDYLQLHQQPNVADLILVLGSNDVRVAEHAAKLYHQGLAPYVLFSGGFGRFTQGVFNHNEAETFAAIAKDAGVPEHAILLETQSTNSGENLHFSHQLLVQQARPAKRILLVQKPYMERRAYATFMQQWPESVESVQVTSPAGSFFDYLTSELTSDFVLNAMLGDFERIRDYPALGFQITQPIPEPVMQAYQALLPLKVNLEMSLEHHHHHH”, “not soluble”. As for “MSKRTTPTYPVEVIRSDRRTRTVSARLVGGKILIRIPASMSKKDEKKFVAEMVDKVRTKTQSSAPTDEALLHRAQHLNRTVLENRATIGSIRWVTNQTRRWGSCSQTTNDIRISHRLQGVPDYVLDAVIIHEMVHTFIEGGHSPEFWQWADKAPKAERAKGYLEAWQRMGDVGLEHHHHHH”, the “soluble on expression in E. coli” value is “not soluble”.
